From IntAct's records for PubMed 36931259

B1: 14-3-3 protein sigma (Homo sapiens), P31947 (parent)
chain: MERASLIQKAKLAEQAERYEDMAAFMKGAVEKGEELSCEERNLLSVAYKNVVGGQRAAWRVLSSIEQKSNEEGSEEKGPEVREYREKVETELQGVCDTVLGLLDSHLIKEAGDAESRVFYLKMKGDYYRYLAEVATGDDKKRIIDSARSAYQEAMDISKKEMPPTNPIRLGLALNFSVFHYEIANSPEEAISLAKTTFDEAMADLHTLSEDSYKDSTLIMQLLRDNLTLWTADNAGEEGGEAPQEPQS

Variants of: B1
Conditions: with pak5_human PAK5, Q9P286
pak5_human PAK5, Q9P286, sequence (Q9P286 whole entry, looked up): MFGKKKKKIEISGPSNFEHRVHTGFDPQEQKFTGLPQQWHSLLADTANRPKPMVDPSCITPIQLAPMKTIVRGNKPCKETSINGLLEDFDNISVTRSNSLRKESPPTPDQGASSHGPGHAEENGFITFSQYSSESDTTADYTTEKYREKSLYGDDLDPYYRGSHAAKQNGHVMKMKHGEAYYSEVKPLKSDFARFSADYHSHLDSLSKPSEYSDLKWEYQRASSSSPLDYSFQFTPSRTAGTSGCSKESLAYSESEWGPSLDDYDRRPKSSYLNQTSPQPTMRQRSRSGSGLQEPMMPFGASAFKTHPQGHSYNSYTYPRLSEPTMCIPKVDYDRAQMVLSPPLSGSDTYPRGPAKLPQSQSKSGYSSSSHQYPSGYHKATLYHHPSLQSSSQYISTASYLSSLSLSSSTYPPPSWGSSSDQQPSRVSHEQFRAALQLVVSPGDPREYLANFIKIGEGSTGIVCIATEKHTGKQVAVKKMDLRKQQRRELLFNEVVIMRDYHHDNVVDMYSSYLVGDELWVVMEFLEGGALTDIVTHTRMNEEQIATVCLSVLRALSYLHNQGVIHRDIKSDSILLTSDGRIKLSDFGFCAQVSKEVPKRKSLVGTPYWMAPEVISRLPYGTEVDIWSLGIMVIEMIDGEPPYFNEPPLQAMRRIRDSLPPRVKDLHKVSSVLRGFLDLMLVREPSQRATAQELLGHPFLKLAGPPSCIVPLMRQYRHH

| effect of a mutation on the interaction | Variant |
| --- | --- |
| decreasing interaction strength | K49E;R56E;V178D |

Variants of: B1
Conditions: with cdk16_human CDK16, Q00536

| effect of a mutation on the interaction | Variant |
| --- | --- |
| decreasing interaction strength | K49E;R56E;V178D |

Variants of: B1
Conditions: with sik1_human SIK1, P57059

| effect of a mutation on the interaction | Variant |
| --- | --- |
| decreasing interaction strength | K49E;R56E;V178D |

Variants of: B1
Conditions: with mark3_human MARK3, P27448

| effect of a mutation on the interaction | Variant |
| --- | --- |
| decreasing interaction strength | K49E;R56E;V178D |

Variants of: B1
Conditions: with plk1_human PLK1, P53350

| effect of a mutation on the interaction | Variant |
| --- | --- |
| decreasing interaction strength | K49E;R56E;V178D |

Variants of: B1
Conditions: with cd28_human CD28, P10747

| effect of a mutation on the interaction | Variant |
| --- | --- |
| decreasing interaction strength | K49E;R56E;V178D |

Variants of: B1
Conditions: with srs10_human SRSF10, O75494

| effect of a mutation on the interaction | Variant |
| --- | --- |
| decreasing interaction strength | K49E;R56E;V178D |

Variants of: B1
Conditions: with pabp1_human PABPC1, P11940

| effect of a mutation on the interaction | Variant |
| --- | --- |
| decreasing interaction strength | K49E;R56E;V178D |

Variants of: B1
Conditions: with foxo3_human FOXO3, O43524

| effect of a mutation on the interaction | Variant |
| --- | --- |
| decreasing interaction strength | K49E;R56E;V178D |

Variants of: B1
Conditions: with hdac4_human HDAC4, P56524

| effect of a mutation on the interaction | Variant |
| --- | --- |
| decreasing interaction strength | K49E;R56E;V178D |

Variants of: B1
Conditions: with wdr62_human WDR62, O43379
wdr62_human WDR62, O43379, sequence (O43379 whole entry): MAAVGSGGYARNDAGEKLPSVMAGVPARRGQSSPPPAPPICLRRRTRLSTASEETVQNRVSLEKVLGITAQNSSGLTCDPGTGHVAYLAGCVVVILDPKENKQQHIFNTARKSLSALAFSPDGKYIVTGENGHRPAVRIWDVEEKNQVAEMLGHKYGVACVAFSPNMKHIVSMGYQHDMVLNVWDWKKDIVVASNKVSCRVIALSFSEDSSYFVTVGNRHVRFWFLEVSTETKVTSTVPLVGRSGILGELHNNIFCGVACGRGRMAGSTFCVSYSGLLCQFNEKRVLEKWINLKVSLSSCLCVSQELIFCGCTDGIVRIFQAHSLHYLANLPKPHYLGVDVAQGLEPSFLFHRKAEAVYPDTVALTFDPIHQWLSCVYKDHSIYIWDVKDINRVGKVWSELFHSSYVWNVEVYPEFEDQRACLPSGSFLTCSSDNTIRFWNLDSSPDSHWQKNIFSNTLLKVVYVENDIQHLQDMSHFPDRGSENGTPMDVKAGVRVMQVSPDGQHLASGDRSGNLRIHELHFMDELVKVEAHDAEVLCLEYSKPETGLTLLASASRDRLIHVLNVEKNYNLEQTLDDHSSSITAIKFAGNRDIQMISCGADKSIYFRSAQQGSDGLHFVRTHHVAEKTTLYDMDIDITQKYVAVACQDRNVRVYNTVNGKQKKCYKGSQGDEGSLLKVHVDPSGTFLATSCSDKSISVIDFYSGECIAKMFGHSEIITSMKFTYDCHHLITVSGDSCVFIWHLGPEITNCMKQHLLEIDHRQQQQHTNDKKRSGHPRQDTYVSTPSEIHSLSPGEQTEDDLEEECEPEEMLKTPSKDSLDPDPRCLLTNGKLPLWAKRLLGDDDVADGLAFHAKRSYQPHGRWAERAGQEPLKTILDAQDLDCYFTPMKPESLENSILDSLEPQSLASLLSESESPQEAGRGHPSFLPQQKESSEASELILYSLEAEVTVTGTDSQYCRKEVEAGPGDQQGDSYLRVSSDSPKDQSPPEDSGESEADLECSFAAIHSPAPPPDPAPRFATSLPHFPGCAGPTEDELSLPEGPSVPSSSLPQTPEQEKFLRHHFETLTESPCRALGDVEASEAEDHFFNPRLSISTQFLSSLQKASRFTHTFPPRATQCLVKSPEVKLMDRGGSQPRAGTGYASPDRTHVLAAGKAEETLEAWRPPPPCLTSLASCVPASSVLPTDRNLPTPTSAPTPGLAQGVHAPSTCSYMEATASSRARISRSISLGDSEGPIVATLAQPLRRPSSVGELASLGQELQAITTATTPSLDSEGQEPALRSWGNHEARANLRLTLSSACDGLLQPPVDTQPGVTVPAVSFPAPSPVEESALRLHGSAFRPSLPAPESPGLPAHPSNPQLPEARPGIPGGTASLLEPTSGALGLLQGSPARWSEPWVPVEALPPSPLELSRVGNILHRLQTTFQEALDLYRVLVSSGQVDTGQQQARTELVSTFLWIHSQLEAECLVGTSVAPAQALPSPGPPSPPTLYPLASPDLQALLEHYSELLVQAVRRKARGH

| effect of a mutation on the interaction | Variant |
| --- | --- |
| decreasing interaction strength | K49E;R56E;V178D |

Variants of: B1
Conditions: with pml_human PML

| effect of a mutation on the interaction | Variant |
| --- | --- |
| decreasing interaction strength | K49E;R56E;V178D |

Variants of: B1
Conditions: with wwp2_human WWP2, O00308

| effect of a mutation on the interaction | Variant |
| --- | --- |
| decreasing interaction strength | K49E;R56E;V178D |

Variants of: B1
Conditions: with trim9_human TRIM9, Q9C026

| effect of a mutation on the interaction | Variant |
| --- | --- |
| decreasing interaction strength | K49E;R56E;V178D |

Variants of: B1
Conditions: with kctd8_human KCTD8, Q6ZWB6

| effect of a mutation on the interaction | Variant |
| --- | --- |
| decreasing interaction strength | K49E;R56E;V178D |

Variants of: B1
Conditions: with nedd4_human NEDD4, P46934

| effect of a mutation on the interaction | Variant |
| --- | --- |
| decreasing interaction strength | K49E;R56E;V178D |

Variants of: B1
Conditions: with dtl_human DTL

| effect of a mutation on the interaction | Variant |
| --- | --- |
| decreasing interaction strength | K49E;R56E;V178D |

Variants of: B1
Conditions: with cbl_human CBL

| effect of a mutation on the interaction | Variant |
| --- | --- |
| decreasing interaction strength | K49E;R56E;V178D |

Variants of: B1
Conditions: with kcna7_human KCNA7, Q96RP8

| effect of a mutation on the interaction | Variant |
| --- | --- |
| decreasing interaction strength | K49E;R56E;V178D |

Variants of: B1
Conditions: with shkb1_human SHKBP1, Q8TBC3
shkb1_human SHKBP1, Q8TBC3, sequence (Q8TBC3 whole entry): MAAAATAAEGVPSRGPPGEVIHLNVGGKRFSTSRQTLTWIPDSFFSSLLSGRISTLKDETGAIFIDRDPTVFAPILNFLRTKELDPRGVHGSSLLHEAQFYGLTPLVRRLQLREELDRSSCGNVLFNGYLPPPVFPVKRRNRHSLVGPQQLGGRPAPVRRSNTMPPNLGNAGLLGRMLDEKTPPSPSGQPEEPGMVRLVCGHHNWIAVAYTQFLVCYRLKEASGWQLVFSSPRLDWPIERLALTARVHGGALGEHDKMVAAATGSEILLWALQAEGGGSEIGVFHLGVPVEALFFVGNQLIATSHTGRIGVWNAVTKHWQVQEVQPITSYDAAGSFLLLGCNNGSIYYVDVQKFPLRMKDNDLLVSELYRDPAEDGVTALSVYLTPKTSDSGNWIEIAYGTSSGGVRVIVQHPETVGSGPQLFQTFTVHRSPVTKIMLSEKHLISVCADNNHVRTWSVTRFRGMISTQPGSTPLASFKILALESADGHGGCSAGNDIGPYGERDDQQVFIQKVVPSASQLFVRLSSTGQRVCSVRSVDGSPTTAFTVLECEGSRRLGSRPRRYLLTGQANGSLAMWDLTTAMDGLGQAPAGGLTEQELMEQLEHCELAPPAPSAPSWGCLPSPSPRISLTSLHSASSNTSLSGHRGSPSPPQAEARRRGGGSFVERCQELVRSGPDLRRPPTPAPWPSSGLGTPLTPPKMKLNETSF

| effect of a mutation on the interaction | Variant |
| --- | --- |
| decreasing interaction strength | K49E;R56E;V178D |

Variants of: B1
Conditions: with abtb2_human ABTB2, Q8N961

| effect of a mutation on the interaction | Variant |
| --- | --- |
| decreasing interaction strength | K49E;R56E;V178D |

Variants of: B1
Conditions: with ned4l_human NEDD4L

| effect of a mutation on the interaction | Variant |
| --- | --- |
| decreasing interaction strength | K49E;R56E;V178D |

Variants of: B1
Conditions: with sh3r1_human SH3RF1, Q7Z6J0

| effect of a mutation on the interaction | Variant |
| --- | --- |
| decreasing interaction strength | K49E;R56E;V178D |

Variants of: B1
Conditions: with braf_human BRAF

| effect of a mutation on the interaction | Variant |
| --- | --- |
| decreasing interaction strength | K49E;R56E;V178D |

Variants of: B1
Conditions: with FAM110B

| effect of a mutation on the interaction | Variant |
| --- | --- |
| decreasing interaction strength | K49E;R56E;V178D |

Variants of: B1
Conditions: with iscu_human ISCU

| effect of a mutation on the interaction | Variant |
| --- | --- |
| decreasing interaction strength | K49E;R56E;V178D |

Variants of: B1
Conditions: with foxo4_human FOXO4, P98177

| effect of a mutation on the interaction | Variant |
| --- | --- |
| decreasing interaction strength | K49E;R56E;V178D |

Variants of: B1
Conditions: with klc4_human KLC4, Q9NSK0
klc4_human KLC4, Q9NSK0, sequence (Q9NSK0 whole entry): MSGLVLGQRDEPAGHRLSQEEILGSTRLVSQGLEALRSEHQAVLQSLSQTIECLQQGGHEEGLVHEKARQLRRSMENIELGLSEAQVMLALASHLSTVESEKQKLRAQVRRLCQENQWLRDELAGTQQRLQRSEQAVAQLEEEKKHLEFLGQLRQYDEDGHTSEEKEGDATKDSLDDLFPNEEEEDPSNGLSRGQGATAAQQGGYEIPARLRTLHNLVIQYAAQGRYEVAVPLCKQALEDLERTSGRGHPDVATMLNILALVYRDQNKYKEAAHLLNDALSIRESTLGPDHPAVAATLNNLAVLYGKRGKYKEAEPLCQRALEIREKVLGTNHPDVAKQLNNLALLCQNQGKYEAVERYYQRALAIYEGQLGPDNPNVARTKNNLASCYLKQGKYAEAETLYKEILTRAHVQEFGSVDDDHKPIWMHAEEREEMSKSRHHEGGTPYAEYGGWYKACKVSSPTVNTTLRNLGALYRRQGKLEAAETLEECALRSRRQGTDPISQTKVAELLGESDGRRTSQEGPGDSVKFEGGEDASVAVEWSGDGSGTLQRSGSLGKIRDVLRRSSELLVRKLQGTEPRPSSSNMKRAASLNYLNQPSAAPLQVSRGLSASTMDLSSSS

| effect of a mutation on the interaction | Variant |
| --- | --- |
| decreasing interaction strength | K49E;R56E;V178D |

Variants of: B1
Conditions: with larp1_human LARP1, Q6PKG0

| effect of a mutation on the interaction | Variant |
| --- | --- |
| decreasing interaction strength | K49E;R56E;V178D |

Variants of: B1
Conditions: with klc3_human KLC3, Q6P597

| effect of a mutation on the interaction | Variant |
| --- | --- |
| decreasing interaction strength | K49E;R56E;V178D |

Variants of: B1
Conditions: with dnjb1_human DNAJB1, P25685
dnjb1_human DNAJB1, P25685, sequence (P25685 whole entry): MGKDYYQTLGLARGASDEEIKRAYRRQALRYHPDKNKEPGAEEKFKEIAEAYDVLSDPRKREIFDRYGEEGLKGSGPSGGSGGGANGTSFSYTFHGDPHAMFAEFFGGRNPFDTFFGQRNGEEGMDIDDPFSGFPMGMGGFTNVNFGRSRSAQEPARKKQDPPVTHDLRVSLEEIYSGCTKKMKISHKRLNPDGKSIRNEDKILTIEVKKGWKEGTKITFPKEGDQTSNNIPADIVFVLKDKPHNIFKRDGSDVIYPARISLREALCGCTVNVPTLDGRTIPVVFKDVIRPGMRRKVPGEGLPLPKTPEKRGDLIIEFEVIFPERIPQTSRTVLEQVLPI

| effect of a mutation on the interaction | Variant |
| --- | --- |
| decreasing interaction strength | K49E;R56E;V178D |

Variants of: B1
Conditions: with wee1_human WEE1, P30291
wee1_human WEE1, P30291, sequence (P30291 whole entry, looked up): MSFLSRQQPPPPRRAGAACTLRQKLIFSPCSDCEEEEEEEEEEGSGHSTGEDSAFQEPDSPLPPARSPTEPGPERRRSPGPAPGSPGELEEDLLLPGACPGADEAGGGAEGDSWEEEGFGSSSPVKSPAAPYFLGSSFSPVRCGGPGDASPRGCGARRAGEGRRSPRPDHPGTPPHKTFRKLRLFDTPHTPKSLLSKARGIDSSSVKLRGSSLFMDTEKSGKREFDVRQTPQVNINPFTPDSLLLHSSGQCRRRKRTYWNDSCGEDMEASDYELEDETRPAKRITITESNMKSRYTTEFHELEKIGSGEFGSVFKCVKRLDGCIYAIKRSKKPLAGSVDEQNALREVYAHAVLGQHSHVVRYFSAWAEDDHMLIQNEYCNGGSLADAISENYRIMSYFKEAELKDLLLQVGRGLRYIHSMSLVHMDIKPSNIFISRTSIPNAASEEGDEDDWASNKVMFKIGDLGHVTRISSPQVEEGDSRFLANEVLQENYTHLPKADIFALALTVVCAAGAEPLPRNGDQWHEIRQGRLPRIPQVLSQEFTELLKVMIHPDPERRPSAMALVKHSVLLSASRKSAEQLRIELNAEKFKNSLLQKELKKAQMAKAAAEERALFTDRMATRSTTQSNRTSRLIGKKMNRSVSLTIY

| effect of a mutation on the interaction | Variant |
| --- | --- |
| decreasing interaction strength | K49E;R56E;V178D |

Variants of: B1
Conditions: with grip1_human GRIP1, Q9Y3R0

| effect of a mutation on the interaction | Variant |
| --- | --- |
| decreasing interaction strength | K49E;R56E;V178D |

Variants of: B1
Conditions: with KIAA0930, Q6ICG6
KIAA0930, Q6ICG6, sequence (Q6ICG6 whole entry): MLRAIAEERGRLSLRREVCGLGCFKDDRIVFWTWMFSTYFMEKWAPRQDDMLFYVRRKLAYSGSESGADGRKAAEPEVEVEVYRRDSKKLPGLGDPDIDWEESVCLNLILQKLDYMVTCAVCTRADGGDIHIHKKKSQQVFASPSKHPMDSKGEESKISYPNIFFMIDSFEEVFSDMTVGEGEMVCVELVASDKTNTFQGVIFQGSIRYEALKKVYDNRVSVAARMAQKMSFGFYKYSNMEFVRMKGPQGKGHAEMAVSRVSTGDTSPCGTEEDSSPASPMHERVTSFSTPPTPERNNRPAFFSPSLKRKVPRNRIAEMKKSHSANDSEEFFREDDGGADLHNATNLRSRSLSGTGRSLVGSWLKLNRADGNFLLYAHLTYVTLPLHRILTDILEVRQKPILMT

| effect of a mutation on the interaction | Variant |
| --- | --- |
| decreasing interaction strength | K49E;R56E;V178D |

Variants of: B1
Conditions: with ablm1_human ABLIM1, O14639

| effect of a mutation on the interaction | Variant |
| --- | --- |
| decreasing interaction strength | K49E;R56E;V178D |

Variants of: B1
Conditions: with baip2_human BAIAP2, Q9UQB8

| effect of a mutation on the interaction | Variant |
| --- | --- |
| decreasing interaction strength | K49E;R56E;V178D |

Variants of: B1
Conditions: with nav1_human NAV1, Q8NEY1

| effect of a mutation on the interaction | Variant |
| --- | --- |
| decreasing interaction strength | K49E;R56E;V178D |

Variants of: B1
Conditions: with pcm1_human PCM1, Q15154

| effect of a mutation on the interaction | Variant |
| --- | --- |
| decreasing interaction strength | K49E;R56E;V178D |

Variants of: B1
Conditions: with EPB41L2, O43491

| effect of a mutation on the interaction | Variant |
| --- | --- |
| decreasing interaction strength | K49E;R56E;V178D |

Variants of: B1
Conditions: with kif1b_human KIF1B

| effect of a mutation on the interaction | Variant |
| --- | --- |
| decreasing interaction strength | K49E;R56E;V178D |

Variants of: B1
Conditions: with clap1_human CLASP1, Q7Z460

| effect of a mutation on the interaction | Variant |
| --- | --- |
| decreasing interaction strength | K49E;R56E;V178D |

Variants of: B1
Conditions: with pum1_human PUM1, Q14671

| effect of a mutation on the interaction | Variant |
| --- | --- |
| decreasing interaction strength | K49E;R56E;V178D |

Variants of: B1
Conditions: with klc2_human KLC2, Q9H0B6

| effect of a mutation on the interaction | Variant |
| --- | --- |
| decreasing interaction strength | K49E;R56E;V178D |

Variants of: B1
Conditions: with foxo1_human FOXO1, Q12778

| effect of a mutation on the interaction | Variant |
| --- | --- |
| decreasing interaction strength | K49E;R56E;V178D |

Variants of: B1
Conditions: with irs1_human IRS1, P35568

| effect of a mutation on the interaction | Variant |
| --- | --- |
| decreasing interaction strength | K49E;R56E;V178D |

Variants of: B1
Conditions: with atat_human ATAT1, Q5SQI0

| effect of a mutation on the interaction | Variant |
| --- | --- |
| decreasing interaction strength | K49E;R56E;V178D |

Variants of: B1
Conditions: with 1433e_human YWHAE

| effect of a mutation on the interaction | Variant |
| --- | --- |
| decreasing interaction strength | K49E;R56E;V178D |
